System: intracellular proteome of ENR+CD and ENR organoids
Assay: LC-MS/MS TMT proteomics of ENR+CD versus ENR organoids
Type: cell-based, C57BL/6 mice
Details: for Average logFC: ENR+CD versus ENR organoids, sample pairs in aggregate (n=4, 2 technical replicates from two biological donors); for M1-1 Log2 Median Normalized / M1-2 Log2 Median Normalized / M2-1 Log2 Median Normalized / M2-2 Log2 Median Normalized: protein abundance ratio ENR+CD versus ENR organoids, LC-MS/MS TMT proteomics; for M1-1 Log2 Median Normalized: sample pair M1-1; for M1-2 Log2 Median Normalized: sample pair M1-2; for M2-1 Log2 Median Normalized: sample pair M2-1; for M2-2 Log2 Median Normalized: sample pair M2-2; for change: up = enriched in ENR+CD, down = enriched in ENR, FDR<0.05 and log fold change cut-off

B1: Q9D816 (protein, UniProt Q9D816 1-490, looked up)
chain: MDPVLVLVLTLSCLLLLSLWRQNSGRGKLPPGPTPFPIIGNILQIDIKNISKSFNYFSKVYGPVFTLYFGSKPTVVVHGYEAVKEALDDLGEEFSGRGSFQIFERINNDLGVIFSNGTKWKELRRFSIMTLRSFGMGKRSIEDRIQEEASCLVEELRKANGSLCDPTFILSCAPSNVICSVIFHNRFDYKDEKFLNLMERLNENFKILNSPWMQVYNALPTLINYLPGSHNKVIKNFTEIKSYILGRVKEHQETLDMDNPRDFIDCFLIKMEQEKHNPHSEFTIESLMATVTDIFVAGTETTNITLRYGLLLLLKHTEVTAKVQAEIDHVIGRHRSPCMQDRTRMPYTDAMVHEIQRYIDLIPNNVPHAATCNVRFRSYFIPKGTELVTSLTSVLHDDKEFPNPEVFDPGHFLDENGNFKKSDYFMPFSIGKRMCVGEALARTELFLILTTILQNFNLKSLVDTKDIDTTPVANTFGRVPPSYQLYFIPR
modifications: full-length
  Average logFC: 1.132
  M1-1 Log2 Median Normalized: 0.664
  M1-2 Log2 Median Normalized: 1.318
  M2-1 Log2 Median Normalized: 0.5735
  M2-2 Log2 Median Normalized: 1.971
  change: up

B2: Q9D6X6 (protein, UniProt Q9D6X6 1-382, looked up)
chain: MAGIPGLFILLVLLCVFMQVSPYTVPWKPTWPAYRLPVVLPQSTLNLAKADFDAKAKLEVSSSCGPQCHKGTPLPTYEEAKQYLSYETLYANGSRTETRVGIYILSNGEGRARGRDSEATGRSRRKRQIYGYDGRFSIFGKDFLLNYPFSTSVKLSTGCTGTLVAEKHVLTAAHCIHDGKTYVKGTQKLRVGFLKPKYKDGAGGDNSSSSAMPDKMKFQWIRVKRTHVPKGWIKGNANDIGMDYDYALLELKKPHKRQFMKIGVSPPAKQLPGGRIHFSGYDNDRPGNLVYRFCDVKDETYDLLYQQCDAQPGASGSGVYVRMWKRPQQKWERKIIGIFSGHQWVDMNGSPQDFNVAVRITPLKYAQICYWIKGNYLDCREG
modifications: full-length
  Average logFC: 1.179
  M1-1 Log2 Median Normalized: 1.521
  M1-2 Log2 Median Normalized: 1.393
  M2-1 Log2 Median Normalized: 0.7475
  M2-2 Log2 Median Normalized: 1.055
  change: up

B3: Q9D6F4 (protein, UniProt Q9D6F4 1-552, looked up)
chain: MVSVQKVPAIALCSGVSLALLHFLCLAACLNESPGQNSKDEKLCPENFTRILDSLLDGYDNRLRPGFGGPVTEVKTDIYVTSFGPVSDVEMEYTMDVFFRQTWIDKRLKYDGPIEILRLNNMMVTKVWTPDTFFRNGKKSVSHNMTAPNKLFRIMRNGTILYTMRLTISAECPMRLVDFPMDGHACPLKFGSYAYPKSEMIYTWTKGPEKSVEVPKESSSLVQYDLIGQTVSSETIKSITGEYIVMTVYFHLRRKMGYFMIQTYIPCIMTVILSQVSFWINKESVPARTVFGITTVLTMTTLSISARHSLPKVSYATAMDWFIAVCFAFVFSALIEFAAVNYFTNIQMQKAKKKISKPPPEVPAAPVLKEKHTETSLQNTHANLNMRKRTNALVHSESDVKSRTEVGNHSSKTSAVQESSEATPKAHLASSPNPFSRANAAETMSAAARGLSSAASPSPHGTLRPASLGSASTRPAFGSRLGRIKTTVNTTGAAGNVSATPPPPAPPPSGSGTSKIDKYARILFPVTFGAFNMVYWVVYLSKDTMEKSESLM
modifications: full-length
  Average logFC: 1.263
  M1-1 Log2 Median Normalized: 0.695
  M1-2 Log2 Median Normalized: 0.98
  M2-1 Log2 Median Normalized: 1.4175
  M2-2 Log2 Median Normalized: 1.959
  change: up

B4: Q9CVI2 (protein, UniProt Q9CVI2 1-245, looked up)
chain: MGKRDNRVAYMNPIAMARSRGPIQSSGPTIQDYLNRPRPTWEEVKEQLEKKKKGSKALAEFEEKMNENWKKELEKHREKLLSGNESSSKKRQKKKKEKKKSGRYSSSSSSSSDSSSSSSDSEDEDKKQTKRRKKKKSRCHKSPESSGSDSASDSKDGSKKKKKSKDVTEREKDTKGLSKKRKMYEDKPLSSESLSESDCGEVQAKRKKSGEERERTTDKAKKRRKHKKHSKKKKKKAASSSSDSP
modifications: full-length
  Average logFC: −1.186
  M1-1 Log2 Median Normalized: −1.385
  M1-2 Log2 Median Normalized: −1.072
  M2-1 Log2 Median Normalized: −1.0115
  M2-2 Log2 Median Normalized: −1.275
  change: down

B5: Q9CQU5 (protein, UniProt Q9CQU5 1-252, looked up)
chain: MADAEKNAVAEKNNAVATKEVLAEAAAILEPVGLQEEAELPAKIMEEFMRNSRKKDKLLCSQLQVVNFLQTFLAQEDTEQSPDALASEDASRQKATETKEQWKDMKATYMDHVDVIKCALSEALPQVKEAHRKYTELQKAFEQLEAKKRVLEEKLQLAQKQWVLQQKRLQNLTKISAEVKRRRKRALEKLDGSHQELETLKQQAGQEQEKLQRNQSYLQLLCSLQNKLVISEGKAEDKDVKGRALTAKSKSP
modifications: full-length
  Average logFC: −1.13
  M1-1 Log2 Median Normalized: −1.159
  M1-2 Log2 Median Normalized: −0.699
  M2-1 Log2 Median Normalized: −1.1625
  M2-2 Log2 Median Normalized: −1.13
  change: down

B6: Q9CWY4 (protein, UniProt Q9CWY4 1-129, looked up)
chain: MQSPLTIPVPVPVLRLPRGPDGFSRGFASDGRRTILRPEVGEGHIQDPPESQEQRARATLRERYLRSLLAMVGHPVSFTLHEGVHVTAQFGATDLDVANFYVSQLQTPIGVQAEALLRCSDIISYSFKL
modifications: full-length
  Average logFC: −1.168
  M1-1 Log2 Median Normalized: −0.742
  M1-2 Log2 Median Normalized: −0.855
  M2-1 Log2 Median Normalized: −1.6895
  M2-2 Log2 Median Normalized: −1.387
  change: down

B7: Q9CZT6 (protein, UniProt Q9CZT6 1-276, looked up)
chain: MADDLGDEWWENQPAAASSPEQSGGEEGGDTEMTQQDTAPVPEKTQQPTECFLTQTKEPKAEDSRKTRKWKKKKISDILAKSEPKPGTPEDLQKLIRDHYSSSRSVIELEELHLPDSCFLKANDLTHSLSSYLKEICPKWVKLRKTHNEKKSVLMLILCSSAVRALELIRSLTAFKGDAKVMKLFAKHIKVQEQVKLLEKRVIHLGVGTPGRIKELVKQDGLHLNPLKFLVFDWNWRDQKLRRMMDIPEIRKEVFELLDMGVFSLCKSDSLKLGLF
modifications: full-length
  Average logFC: −1.131
  M1-1 Log2 Median Normalized: −1.275
  M1-2 Log2 Median Normalized: −0.965
  M2-1 Log2 Median Normalized: −0.8705
  M2-2 Log2 Median Normalized: −1.413
  change: down

B8: Q9D3P9 (protein, UniProt Q9D3P9 1-169, looked up)
chain: MRGMNLQLVCLTLLAFSSWSLCSDSEEDVRALEADLLTNMHTSKISKASPPSWKMTLLNVCSLINNVNSPAEEAGDMHDDDLVGKRKLPLVLDGFSLEAMLTIFQLQKICRSRAFQHWEIIQEDILDNVNDKNEKEEVIKRKIPYILKRQLYENKPRRPYILKRGSYYY
modifications: full-length
  Average logFC: 1.285
  M1-1 Log2 Median Normalized: 1.731
  M1-2 Log2 Median Normalized: 0.439
  M2-1 Log2 Median Normalized: 0.8595
  M2-2 Log2 Median Normalized: 2.111
  change: up

B9: Q9D1C1 (protein, UniProt Q9D1C1 1-179, looked up)
chain: MASQNRDPAAASVAAVRKGAEPCGGAARGPVGKRLQQELMILMTSGDKGISAFPESDNLFKWVGTIHGAAGTVYEDLRYKLSLEFPSGYPYNAPTVKFLTPCYHPNVDTQGNICLDILKDKWSALYDVRTILLSIQSLLGEPNIDSPLNTHAAELWKNPTAFKKYLQETYSKQVSSQDP
modifications: full-length
  Average logFC: −1.255
  M1-1 Log2 Median Normalized: −1.316
  M1-2 Log2 Median Normalized: −0.925
  M2-1 Log2 Median Normalized: −1.1505
  M2-2 Log2 Median Normalized: −1.63
  change: down

B10: Q9CXS4 (protein, UniProt Q9CXS4 1-252, looked up)
chain: MRRTRSAVATGPREQRRSGATGGLSGGESRAQRSRSRTRAGAGGGGGAVGPQPSAKPRPKPPPRAQEAAAEEPPPAVTPAASVSALDLGEQRERWETFQKRQRLSFEGAAKLLLDTFEYQGLVKHTGGCHCGAVRFEVWASADLHIFDCNCSICKKKQNRHFIVPASRFKLLKGAESITTYTFNTHKAQHTFCKRCGVQSFYTPRSNPGGFGIAPHCLDEGTVRSVVTEEFNGSDWERAMKEHKTIKNMSKE
modifications: full-length
  Average logFC: −1.1404
  M1-1 Log2 Median Normalized: −1.106
  M1-2 Log2 Median Normalized: −1.141
  M2-1 Log2 Median Normalized: −0.9445
  M2-2 Log2 Median Normalized: −1.649
  change: down

B11: Q9D009 (protein, UniProt Q9D009 1-231, looked up)
chain: MSLPVVRLVWLGRVHYSELLALQEHWLRRLQADPRPGTLSGTKAGVLLVCEPAGPVYTGGLRGGLTPEETTRLRALGAEVRATGRGGLATFHGPGQLLCHPVLDLRLLGLRLRTHVAALEACAVRLCELRGLQGARARPPPYTGVWLGERKICAIGVRCGRHITSHGLALNCSTDLTWFEHIVPCGLVGTGVTSLSEALQRLVTVDEVMPSFLVAFKETFKCTLISEDSPS
modifications: full-length
  Average logFC: −2.176
  M1-1 Log2 Median Normalized: −0.836
  M1-2 Log2 Median Normalized: −2.401
  M2-1 Log2 Median Normalized: −2.1745
  M2-2 Log2 Median Normalized: −2.621
  change: down

B12: Q9CXC3 (protein, UniProt Q9CXC3 1-338, looked up)
chain: MKLPLTFCRLLSRLNRFSVKASPPVSFSTFSYLCSQKKKNSYEAVDQAKYSRLVRSVLSRGPAQTPESLFKEDDVLYGPVSKHKAAEPEPQARVPQHCFPIFNEERTGKPHTDASSSPLKIPLQRNSIPSVTRILQQTMPPEQSFFLERWKERMVLELGEDGFAEYTSNVFLQGKQFHKALESILSPQENLTGGEEHPQCGYIESIQHILTEISGVQALESAVQHEALKYVGLLDCVAEYRGKLCVIDWKTSEKPKPLIRNTYDNPLQVVAYMGAVNHDAHYSFQVQCGLIVVAYKDGSPAHPHFMDEELCSKYWAKWLLRLEEYTEKQKNLSAPEPA
modifications: full-length
  Average logFC: −1.487
  M1-1 Log2 Median Normalized: −1.486
  M1-2 Log2 Median Normalized: −0.854
  M2-1 Log2 Median Normalized: −1.7905
  M2-2 Log2 Median Normalized: −1.7
  change: down

B13: Q9CPY1 (protein, UniProt Q9CPY1 1-128, looked up)
chain: MAGSVPWAASRRLWGWVPSACRSFSLGVPRLAFVRLTLPPPKVVDRWNEKRALFGVYDNIGILGNFEKHPKELIKGPVWLRGWRGNELQRCVRKKKFVGNRMFIEDLHNLNKRISYLYKHFNRHGKYR
modifications: full-length
  Average logFC: −1.278
  M1-1 Log2 Median Normalized: −0.801
  M1-2 Log2 Median Normalized: −0.766
  M2-1 Log2 Median Normalized: −2.0015
  M2-2 Log2 Median Normalized: −1.543
  change: down

— patent publication US11994512B2, “Single-cell genomic methods to generate ex vivo cell systems that recapitulate in vivo biology with improved fidelity” (Massachusetts Institute of Technology, priority 2018, dated 2024)
